Columns and labels:
[1] = molecular target: mouse IL-18 binding protein (mouse) (UniProt Q9Z0M9); test: SPR
IL-18BP (Homo sapiens) = IL-18BP (Homo sapiens) (UniProt O95998); conditions: cited from earlier work
Sequence of IL-18BP (Homo sapiens) (O95998 31-194): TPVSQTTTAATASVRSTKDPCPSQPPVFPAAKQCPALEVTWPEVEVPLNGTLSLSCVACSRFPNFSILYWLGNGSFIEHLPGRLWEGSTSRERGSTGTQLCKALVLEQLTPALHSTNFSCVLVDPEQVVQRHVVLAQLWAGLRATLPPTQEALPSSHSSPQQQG

Sequence of IL-18 (Q14116 37-193): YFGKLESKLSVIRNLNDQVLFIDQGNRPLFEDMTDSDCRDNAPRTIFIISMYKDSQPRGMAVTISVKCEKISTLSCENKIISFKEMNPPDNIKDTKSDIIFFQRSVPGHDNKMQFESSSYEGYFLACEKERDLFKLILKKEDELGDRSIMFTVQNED
Sequence of mouse IL-18 binding protein (mouse) (Q9Z0M9 31-193): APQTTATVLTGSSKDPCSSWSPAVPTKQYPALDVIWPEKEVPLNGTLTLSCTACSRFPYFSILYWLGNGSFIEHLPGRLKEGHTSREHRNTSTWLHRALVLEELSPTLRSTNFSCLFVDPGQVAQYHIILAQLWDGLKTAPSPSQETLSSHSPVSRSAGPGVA

Substance	Kd [1] [µM]	Kd (IL-18BP (Homo sapiens)) [µM]
decoy-resistant IL-18 variant CS2 (consensus sequence 2), DR-18 (from UniProt P70380 37-192) (ligand)	> 10	–
IL-18 (from UniProt Q14116)	–	< 0.001

Reference: publication PMC7381364
